From US20110236397 come the findings set out here.

In data set [1] the test system is full-length CD2AP, GFP-tagged (GFP-CD2AP fusion protein, 98 kD).
In data set [2] the test system is C-terminal FLAG-tagged CD2AP (71 kD).
Data set [3] deals with CD2AP with the cathepsin L cleavage site LSAAE deleted.

purified FLAG-CD2AP, sequence (chain, as listed by the source): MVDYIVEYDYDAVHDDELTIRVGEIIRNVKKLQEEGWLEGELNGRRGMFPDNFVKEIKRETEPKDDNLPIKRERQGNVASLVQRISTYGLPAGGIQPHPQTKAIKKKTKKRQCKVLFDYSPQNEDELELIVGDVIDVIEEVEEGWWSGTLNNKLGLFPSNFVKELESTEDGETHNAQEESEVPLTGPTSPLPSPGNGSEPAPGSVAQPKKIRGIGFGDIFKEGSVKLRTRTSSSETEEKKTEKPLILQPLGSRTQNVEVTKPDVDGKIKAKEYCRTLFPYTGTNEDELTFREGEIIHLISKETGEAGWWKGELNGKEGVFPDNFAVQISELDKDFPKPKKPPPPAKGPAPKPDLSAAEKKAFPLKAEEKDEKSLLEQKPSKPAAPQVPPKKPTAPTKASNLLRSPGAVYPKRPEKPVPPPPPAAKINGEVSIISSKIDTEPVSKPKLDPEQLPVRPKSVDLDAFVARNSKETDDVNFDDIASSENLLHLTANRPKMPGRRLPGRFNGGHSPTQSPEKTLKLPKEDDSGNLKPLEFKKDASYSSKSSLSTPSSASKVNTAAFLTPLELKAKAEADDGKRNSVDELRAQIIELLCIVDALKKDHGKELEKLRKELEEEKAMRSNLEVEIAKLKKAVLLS

Turning to “purified cathepsin L enzyme (Sigma, specific activity 4.13 U/mg)”, the “in vitro cleavage assay, silver stain” value in the data set with purified FLAG-CD2AP is given as “cleavage assays performed at neutral conditions (pH 7.0) yielded a stable 32 kD CD2AP fragment (p32)”. The “in vitro cleavage assay, immunoblot” value in data set [1] was “At neutral pH, CD2AP was cleaved into a stable 55 kD fragment as detected with an anti-GFP antibody”; in data set [2] it was “This experiment yielded a C-terminal 44 kD fragment of CD2AP; the anti-FLAG antibody also detected a strong band corresponding to p32 fragment”; in data set [3] it was “In absence of this cleavage site, the characteristic p32 fragment was no longer observed after enzymatic digest with cathepsin L enzyme”.
